Measurements taken from PMC5397419.

Target: T1, DnaA wild-type (Escherichia coli) (UniProt P03004)
T1 sequence: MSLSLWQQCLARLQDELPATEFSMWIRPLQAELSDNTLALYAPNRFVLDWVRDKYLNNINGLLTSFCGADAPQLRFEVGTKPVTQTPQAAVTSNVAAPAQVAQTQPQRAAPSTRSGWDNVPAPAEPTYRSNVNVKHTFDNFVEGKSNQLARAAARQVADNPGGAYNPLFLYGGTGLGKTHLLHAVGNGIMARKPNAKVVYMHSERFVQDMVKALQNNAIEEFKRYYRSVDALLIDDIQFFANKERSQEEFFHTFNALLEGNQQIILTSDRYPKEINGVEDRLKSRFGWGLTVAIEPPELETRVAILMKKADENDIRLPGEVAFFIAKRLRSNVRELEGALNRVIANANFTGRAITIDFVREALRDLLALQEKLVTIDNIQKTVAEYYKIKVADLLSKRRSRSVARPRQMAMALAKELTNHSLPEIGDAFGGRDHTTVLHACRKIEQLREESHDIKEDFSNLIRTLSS
Assay: EMSA
Conditions: EMSA oriC/PdnaA: 20 mM HEPES-KOH pH 8.0, 5 mM Mg acetate, 1 mM EDTA, 4 mM DTT, 0.2% Triton X-100, 5% glycerol, 0.5 mg/ml BSA, 2 mM ATP, 20 C; DARS1: 20 mM …

GGGGATAGGGGCTGGAGACAGTTATCCACTATTCCTGTGGATAACCATGTGTATTAGAGTTAGAAAACACGAGGCAAGCGAGAGAATACGCGGCTTGCACG (double strand) [DARS1]
binding: binds
